Laboratory results taken from the supplement of paper PMC9112550, “Optimization of the antimicrobial peptide Bac7 by deep mutational scanning” (BMC Biology, 2022).

System: Escherichia coli TOP10
Assay: shrunken log2 fold change of peptide-encoding DNA abundance (4.5 h post-induction vs induction); higher = less antimicrobial activity (less host growth inhibition)
Settings: time post-induction: 4.5 h; library: site-saturation at positions 5, 18, 19, 20
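Further: peptides expressed intracellularly from a pBAD plasmid library in pooled LB shake-flask culture, induced with 0.3% L-arabinose, DNA abundance read by NGS, three biological replicates, DESeq2 with apeglm shrinkage.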

Row | Sequence | shrunken log2 fold change
1 | RRIRDRPPRLPRPRPRPYKDPRP | -0.221
2 | RRIRQRPPRLPRPRPRPPERPRP | 0.0424
3 | RRIRWRPPRLPRPRPRPWVPPRP | 0.00582
4 | RRIRFRPPRLPRPRPRPFVMPRP | -1.05
5 | RRIRIRPPRLPRPRPRPTYLPRP | -0.463
6 | RRIRKRPPRLPRPRPRPELFPRP | 0.155
7 | RRIRSRPPRLPRPRPRPFEHPRP | -0.0715
8 | RRIRERPPRLPRPRPRPMIMPRP | -0.00163
9 | RRIRKRPPRLPRPRPRPKDFPRP | -0.0746
10 | RRIRERPPRLPRPRPRPRHWPRP | 0.0819
11 | RRIRHRPPRLPRPRPRPHYQPRP | 0.0121
12 | RRIRCRPPRLPRPRPRPHNCPRP | -0.491
13 | RRIRERPPRLPRPRPRPTCDPRP | 0.158
14 | RRIRYRPPRLPRPRPRPIQTPRP | -0.499
15 | RRIRRRPPRLPRPRPRPGDTPRP | 0.0234
16 | RRIRKRPPRLPRPRPRPWINPRP | -0.0449
17 | RRIRSRPPRLPRPRPRPGGAPRP | 0.574
18 | RRIRTRPPRLPRPRPRPRCNPRP | -0.36
19 | RRIRKRPPRLPRPRPRPYPGPRP | -0.142
20 | RRIRYRPPRLPRPRPRPWHTPRP | -1.52
21 | RRIRNRPPRLPRPRPRPTLMPRP | 0.0843
22 | RRIRLRPPRLPRPRPRPNTCPRP | -0.823
23 | RRIRGRPPRLPRPRPRPKHHPRP | 0.309
24 | RRIRHRPPRLPRPRPRPWKNPRP | -0.187
25 | RRIRIRPPRLPRPRPRPPLIPRP | -0.512

Row | Sequence | shrunken log2 fold change
26 | RRIRYRPPRLPRPRPRPHFCPRP | -0.428
27 | RRIRMRPPRLPRPRPRPQPTPRP | 0.868
28 | RRIRLRPPRLPRPRPRPWGNPRP | -0.106
29 | RRIRRRPPRLPRPRPRPNLWPRP | 0.552
30 | RRIRSRPPRLPRPRPRPKAIPRP | 0.119
31 | RRIRSRPPRLPRPRPRPKHLPRP | -0.466
32 | RRIRARPPRLPRPRPRPSHPPRP | -0.0758
33 | RRIRQRPPRLPRPRPRPVIIPRP | -1.01
34 | RRIRFRPPRLPRPRPRPHNLPRP | -0.104
35 | RRIRFRPPRLPRPRPRPTSKPRP | -0.191
36 | RRIRYRPPRLPRPRPRPRPAPRP | 0.393
37 | RRIRGRPPRLPRPRPRPVMLPRP | 0.317
38 | RRIRARPPRLPRPRPRPEWDPRP | 1.13
39 | RRIRFRPPRLPRPRPRPTTPPRP | 0.352
40 | RRIRFRPPRLPRPRPRPHHGPRP | 0.000407
41 | RRIRDRPPRLPRPRPRPEWPPRP | 0.209
42 | RRIRWRPPRLPRPRPRPPQMPRP | 0.592
43 | RRIRSRPPRLPRPRPRPQEAPRP | -0.0452
44 | RRIRNRPPRLPRPRPRPVPVPRP | -0.0667
45 | RRIRLRPPRLPRPRPRPGFSPRP | -0.161
46 | RRIRSRPPRLPRPRPRPHSEPRP | -0.0351
47 | RRIRRRPPRLPRPRPRPMEFPRP | 0.0274
48 | RRIRLRPPRLPRPRPRPKQMPRP | 0.0542
49 | RRIRWRPPRLPRPRPRPYGLPRP | -0.23
50 | RRIRKRPPRLPRPRPRPCFRPRP | -0.0108

Row | Sequence | shrunken log2 fold change
51 | RRIRLRPPRLPRPRPRPWGMPRP | -0.0457
52 | RRIRMRPPRLPRPRPRPGKVPRP | 0.101
53 | RRIRDRPPRLPRPRPRPRSWPRP | 0.131
54 | RRIRERPPRLPRPRPRPYQGPRP | -0.199
55 | RRIRHRPPRLPRPRPRPNHWPRP | -0.594
56 | RRIRKRPPRLPRPRPRPKDMPRP | 0.139
57 | RRIRQRPPRLPRPRPRPPVDPRP | -0.19
58 | RRIRRRPPRLPRPRPRPHLEPRP | 0.0779
59 | RRIRWRPPRLPRPRPRPPKAPRP | -0.0568
60 | RRIRSRPPRLPRPRPRPNGKPRP | -0.437
61 | RRIRCRPPRLPRPRPRPEHQPRP | 0.0614
62 | RRIRKRPPRLPRPRPRPDQGPRP | -0.0154
63 | RRIRKRPPRLPRPRPRPVDWPRP | 0.852
64 | RRIRHRPPRLPRPRPRPHEWPRP | 0.00275
65 | RRIRNRPPRLPRPRPRPKPEPRP | 0.0739
66 | RRIRYRPPRLPRPRPRPWAMPRP | -0.00232
67 | RRIRTRPPRLPRPRPRPKCIPRP | -0.292
68 | RRIRNRPPRLPRPRPRPGVLPRP | 0.222
69 | RRIRARPPRLPRPRPRPEPDPRP | -0.0215
70 | RRIRGRPPRLPRPRPRPMHQPRP | 0.696
71 | RRIRLRPPRLPRPRPRPNCYPRP | -0.422
72 | RRIRSRPPRLPRPRPRPHPGPRP | 0.00228
73 | RRIRYRPPRLPRPRPRPPENPRP | -0.145
74 | RRIRYRPPRLPRPRPRPPTDPRP | -0.181
75 | RRIRIRPPRLPRPRPRPGDEPRP | -0.0396

Row | Sequence | shrunken log2 fold change
76 | RRIRWRPPRLPRPRPRPLFAPRP | 0.579
77 | RRIRIRPPRLPRPRPRPQAVPRP | -0.0119
78 | RRIRMRPPRLPRPRPRPAFQPRP | 0.0845
79 | RRIRFRPPRLPRPRPRPRMYPRP | -0.151
80 | RRIRDRPPRLPRPRPRPCFKPRP | -0.0968
81 | RRIRGRPPRLPRPRPRPNNDPRP | 0.247
82 | RRIRHRPPRLPRPRPRPPGNPRP | 0.133
83 | RRIRSRPPRLPRPRPRPWSWPRP | 0.405
84 | RRIRDRPPRLPRPRPRPRWIPRP | -0.376
85 | RRIRMRPPRLPRPRPRPIAEPRP | 3.46
86 | RRIRDRPPRLPRPRPRPPLLPRP | 0.252
87 | RRIRWRPPRLPRPRPRPWKYPRP | -0.679
88 | RRIRLRPPRLPRPRPRPFIIPRP | -0.271
89 | RRIRSRPPRLPRPRPRPNNVPRP | -0.592
90 | RRIRSRPPRLPRPRPRPLLLPRP | -0.0475
91 | RRIRARPPRLPRPRPRPESIPRP | -0.0955
92 | RRIRIRPPRLPRPRPRPHHPPRP | -0.629
93 | RRIRHRPPRLPRPRPRPDPYPRP | -0.126
94 | RRIRDRPPRLPRPRPRPWSVPRP | 0.0902
95 | RRIRNRPPRLPRPRPRPREHPRP | 0.0287
96 | RRIRDRPPRLPRPRPRPPTIPRP | 0.0394
97 | RRIRHRPPRLPRPRPRPKMGPRP | -0.00141
98 | RRIRLRPPRLPRPRPRPAWMPRP | -0.0208
99 | RRIRRRPPRLPRPRPRPRMMPRP | 0.351
100 | RRIRNRPPRLPRPRPRPDCYPRP | -0.871

Row | Sequence | shrunken log2 fold change
101 | RRIRNRPPRLPRPRPRPDFKPRP | -0.0167
102 | RRIRKRPPRLPRPRPRPMRQPRP | 0.384
103 | RRIRIRPPRLPRPRPRPRMVPRP | 0.0922
104 | RRIRCRPPRLPRPRPRPHKLPRP | -0.436
105 | RRIRQRPPRLPRPRPRPIPGPRP | -0.309
106 | RRIRFRPPRLPRPRPRPHTCPRP | 0.00442
107 | RRIRDRPPRLPRPRPRPYFFPRP | -0.287
108 | RRIRERPPRLPRPRPRPVPTPRP | 0.116
109 | RRIRERPPRLPRPRPRPLAMPRP | -0.246
110 | RRIRHRPPRLPRPRPRPGGVPRP | 0.237
111 | RRIRMRPPRLPRPRPRPDNCPRP | 0.00157
112 | RRIRDRPPRLPRPRPRPAFMPRP | 0.699
113 | RRIRFRPPRLPRPRPRPECYPRP | -0.155
114 | RRIRDRPPRLPRPRPRPQAIPRP | 0.0512
115 | RRIRGRPPRLPRPRPRPCYHPRP | -0.345
116 | RRIRDRPPRLPRPRPRPKYWPRP | -0.147
117 | RRIRGRPPRLPRPRPRPRVEPRP | 0.432
118 | RRIRPRPPRLPRPRPRPEWFPRP | 0.341
119 | RRIRSRPPRLPRPRPRPKMAPRP | -0.13
120 | RRIRPRPPRLPRPRPRPVVLPRP | 0.00791
121 | RRIRHRPPRLPRPRPRPDLIPRP | -0.0224
122 | RRIRMRPPRLPRPRPRPSTDPRP | 0.949
123 | RRIRKRPPRLPRPRPRPIGQPRP | 0.0684
124 | RRIRRRPPRLPRPRPRPVNTPRP | -0.0567
125 | RRIRKRPPRLPRPRPRPHKSPRP | 0.0371
